US12447201B2, “Immunogenic compounds for cancer therapy” (priority 2016, dated 2025)

Tests used:
HLA-A*0201 = molecular target: T1, HLA-A*0201 (Homo sapiens, UniProt P04439, D140Y/D185E/D98H/E176V/E277Q/G131W/G231S/I119V/I121R/I166T/I218V/L300P/L318F/N151K/N90K/P208A/P217A/Q86G/Q94H/R138H/R169H/T345S); experiment: Affinity of the peptide to HLA-A*0201 measured on T2 cell line (FACS, anti-HLA-A2 labelling); format: binding; settings: for binding to HLA-A*0201 / affinity to HLA-A*0201 compared with the peptide 1A9V: Example 3, FIG. 4, T2 cells; for peptide concentration inducing 20% of expression of the HLA-A*0201: T2 cells
T1 construct: human tumoral cell T2 which expresses the HLA-A*0201 molecule, but which is TAP1/2 negative; endogenous in cells; host or cells: T2 cells (human, TAP1/2 negative)
Excerpt: The experimental protocol is similar to the one that was validated for peptides presented by the HLA-A*0201 (Tourdot et al., A general strategy to enhance immunogenicity of low-affinity HLA-A2.1-associated peptides: implication in the identification of cryptic tumor epitopes. Eur J Immunol. 2000 December; 30 (12): 3411-21). Affinity measurement of the peptides is achieved with the human tumoral cell T2 which expresses the HLA-A*0201 molecule, but which is TAP1/2 negative and incapable of presenting endogenous peptides.
T2 cells (2.10^5 cells per well) are incubated with decreasing concentrations of peptides from 100 μM to 0.1 μM in a AIMV medium supplemented with 100 ng/μl of human β2m at 37° C. for 16 hours. Cells are then washed two times and marked with the anti-HLA-A2 antibody coupled to PE (clone BB7.2, BD Pharmagen).
The analysis is achieved by FACS (Guava Easy Cyte).
For each peptide concentration, the geometric mean of the labelling associated with the peptide of interest is substracted from background noise and reported as a percentage of the geometric mean of the […] labelling obtained for the reference peptide HIV pol 589-597 at a concentration of 100 μM. The relative affinity is then determined as follows: relative affinity=concentration of each peptide inducing 20% of expression of HLA-A*0201/concentration of the reference peptide inducing 20% of expression of HLA-A*0201. A2. Solubilisation of Peptides
The experimental protocol was similar to the one that was validated for peptides presented by the HLA-A*0201 (Tourdot et al., A general strategy to enhance immunogenicity of low-affinity HLA-A2.1-associated peptides: implication in the identification of cryptic tumor epitopes. Eur J Immunol. 2000 December; 30 (12): 3411-21).
T2 cells (2.10^5 cells per well) were incubated with decreasing concentrations of peptides from 100 μM to 0.1 μM in a AIMV medium supplemented with 100 ng/μl of human β2m at 37° C. for 16 hours. Cells were then washed two times and marked with the anti-HLA-A2 antibody coupled to PE (clone BB7.2, BD Pharmagen).
The analysis was achieved by FACS (Guava Easy Cyte).
For each peptide concentration, the geometric mean of the labelling associated with the peptide of interest was subtracted from background noise and reported as a percentage of the geometric mean of the […] labelling obtained for the reference peptide HIV pol 589-597 at a concentration of 100 μM. The relative affinity is then determined as follows: relative affinity=concentration of each peptide inducing 20% of expression of HLA-A*0201/concentration of the reference peptide inducing 20% of expression of HLA-A*0201. A2. Solubilisation of Peptides
The experimental protocol, materials and methods correspond to those outlined in Example 3, with the only difference that the above mentioned antigenic peptides were used.

β/A2/DR3 mice = experiment: ELISPOT-IFNγ assay on splenocytes of vaccinated β/A2/DR3 mice; format: in vivo, mouse; settings: as compared to IL13RA2-H-vaccinated animals (group 2)

| Sequence | binding to HLA-A*0201 (HLA-A*0201) | peptide concentration inducing 20% of expression of the HLA-A*0201 (HLA-A*0201) | affinity to HLA-A*0201 compared with the peptide 1A9V (HLA-A*0201) | T cell responses in the ELISPOT-IFNγ assay after vaccination (β/A2/DR3 mice) |
| --- | --- | --- | --- | --- |
| WLPFGFILI [IL13RA2-H, reference compound] | do not bind to or show much lower affinity | 100 UM | – | – |
| FLPFGFILV [IL13RA2-B] | bind strongly | 4.4 µM | higher affinity | improved T cell responses |
| YLYTFLIST [IL13RA2-B2] | bind strongly | – | higher affinity | – |
| CLYTFLIST [IL13RA2-H2, reference compound] | do not bind to or show much lower affinity | – | – | – |
